Reference: paper PMC9122904, “Insights into the client protein release mechanism of the ATP-independent chaperone Spy” (Nature Communications, 2022)
Substitutions are numbered along the chain they refer to. In names and notes the source's numbering stands.

Experiments:
Test in all cases: BLI; Octet RED96; client biotinylated and loaded on streptavidin sensors; Spy or Spy variant in solution at 0.25, 0.5, 1, 1.5 and 2 μM; 40 mM HEPES, 150 mM NaCl, pH 7.5; Kd calculated as koff/kon
Conditions in all cases: both partners purified
Spy_(29-124) R43D = molecular target: T1, Spy_(29-124) R43D (UniProt P77754 52-147, R43D)
T1 construct: source: E. coli BL21 (DE3), purified (Ni-NTA, cation exchange, SEC); not shown: His6, N-terminal, cleaved; SUMO, N-terminal, cleaved
T1 sequence (looked up): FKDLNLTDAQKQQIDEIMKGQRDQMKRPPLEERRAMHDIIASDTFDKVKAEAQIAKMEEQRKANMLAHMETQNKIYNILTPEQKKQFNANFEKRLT

Spy_(29-124) K54D R55D = molecular target: T2, Spy_(29-124) K54D R55D (UniProt P77754 52-147, K54D | R55D)
T2 construct: source: E. coli BL21 (DE3), purified (Ni-NTA, cation exchange, SEC); not shown: His6, N-terminal, cleaved; SUMO, N-terminal, cleaved
T2 sequence (looked up): T1 sequence (looked up) with D15R, K26D, R27D

Spy_(29-124) R89D = molecular target: T3, Spy_(29-124) R89D (UniProt P77754 52-147, R89D)
T3 construct: source: E. coli BL21 (DE3), purified (Ni-NTA, cation exchange, SEC); not shown: His6, N-terminal, cleaved; SUMO, N-terminal, cleaved
T3 sequence (looked up): T1 sequence (looked up) with D15R, R61D

Spy_(29-124) H96D = molecular target: T4, Spy_(29-124) H96D (UniProt P77754 52-147, H96D)
T4 construct: source: E. coli BL21 (DE3), purified (Ni-NTA, cation exchange, SEC); not shown: His6, N-terminal, cleaved; SUMO, N-terminal, cleaved
T4 sequence (looked up): T1 sequence (looked up) with D15R, H68D

- koff (Spy_(29-124) R43D): 0.601 s⁻¹
- koff (Spy_(29-124) K54D R55D): 0.239 s⁻¹
- koff (Spy_(29-124) R89D): 0.125 s⁻¹
- koff (Spy_(29-124) H96D): 0.234 s⁻¹
B1: Im7 H40W L53A I54A (natural protein)
chain: MELKNSISDYTEAEFVQLLKEIEKENVAATDDVLDVLLEWFVKITEHPDGTDAAYYPSDNRDDSPEGIVKEIKEWRAANGKPGFKQG
modifications: biotin (EZ-link NHS-biotin, 1:1 molar ratio of biotin to protein)
notes: Im7 (colicin E7 immunity protein) with H40W L53A I54A; Spy was made with an N-terminal His6-SUMO tag that was cleaved; also called Im7AAW; partially folded client; source: purified by a similar procedure to Spy
